Experiments:
[1] = test system: COLO 205 tumor vessel perfusion; assay: Tumor perfusion by contrast-enhanced micro-ultrasound, COLO 205 tumors; assay type: in vivo, mice; conditions: treated for 24 hrs
Description: To determine whether the combination of H1H685P+VEGF Trap has a greater effect on tumor vessel function than the single agents, a micro-ultrasound (VisualSonics' Vevo 770 imaging system) was used to assess changes in tumor perfusion. COLO 205 tumors were grown to ˜125 mm^3 and mice were then treated for 24 hrs with H1H685P, VEGF Trap or the combination of both agents. Following treatment, tumor vessel perfusion was determined based on contrast-enhanced micro-ultrasound 2D image acquisition and analysis of a “wash-in” curve, which represents the amount of contrast agent entering the tumor. Average (mean+/−standard deviation) tumor perfusion was calculated for each group. Percent decrease was calculated from comparison to the Fc control group.

[2] = target: T1, hAng-1-WT binding to hTie-2-mFc (Homo sapiens, UniProt Q15389); assay: Biosensor SPR blocking of hAng-1-WT binding to hTie-2-mFc-ecto surface; assay type: biochemical; conditions: for Percent of Neg. Ctrl Binding (hAng-1 WT) / Specific Bound RU (hAng-1 WT): 10 nM hAng-1-WT
T1 sequence (Q15389 20-498 limits assumed): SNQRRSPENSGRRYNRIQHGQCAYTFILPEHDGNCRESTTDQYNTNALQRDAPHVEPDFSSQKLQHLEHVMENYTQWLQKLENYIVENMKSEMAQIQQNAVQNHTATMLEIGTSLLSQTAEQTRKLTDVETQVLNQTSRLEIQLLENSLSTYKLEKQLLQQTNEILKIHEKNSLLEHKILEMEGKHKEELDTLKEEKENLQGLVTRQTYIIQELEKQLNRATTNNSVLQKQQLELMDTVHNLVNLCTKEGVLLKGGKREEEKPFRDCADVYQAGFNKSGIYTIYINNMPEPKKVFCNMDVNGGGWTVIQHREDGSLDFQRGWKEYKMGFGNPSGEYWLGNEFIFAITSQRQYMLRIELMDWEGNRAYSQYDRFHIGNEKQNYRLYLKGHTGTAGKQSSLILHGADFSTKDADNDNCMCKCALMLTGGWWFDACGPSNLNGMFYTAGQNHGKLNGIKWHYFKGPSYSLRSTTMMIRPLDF
Description: In an effort to further assess the ability of selected anti-hAng-2 antibodies to block the binding of Ang-1 to Tie-2, a biosensor surface plasmon resonance experiment was conducted. In this experiment, a human Tie-2 full-length extracellular domain construct (hTie-2-mFc-ecto) was amine-coupled on a BIACORE™ chip to create a receptor coated surface. Selected anti-hAng-2 antibodies and control constructs, at 1 μM (100-fold excess over antigen), were premixed with 10 nM of hAng-1-WT, followed by 60 minutes incubation at 25° C. to allow antibody-antigen binding to reach equilibrium to form equilibrated solutions. The equilibrated solutions were injected over the receptor surfaces at 5 μL/min for 5 minutes at 25° C. Changes in resonance units (RU) due to the binding of the hAng-1-WT to hTie-2-mFc were determined. An irrelevant peptibody construct with no binding to hAng-1 was included in this experiment to establish the 0% blocking baseline, and a human Tie-2-mFc construct was used as a positive control for blocking. The amount of Ang-1 bound to Tie-2 following antibody preincubation, expressed as a percentage of the amount of Ang-1 bound to Tie-2 following negative control preincubation, is shown in Table 20. (A greater amount of Ang-1 binding to Tie-2 signifies a lower degree of antibody blocking).
The foregoing experiment was repeated using different amounts of Ang-2 blockers and controls. In particular, a human Tie-2 full-length extracellular domain construct (hTie-2-mFc-ecto) was amine-coupled on a BIACORE™ chip to create a receptor-coated surface. Selected anti-hAng-2 antibodies and control constructs (50 or 150 nM) were mixed with hAng-2-WT (25 nM) followed by 60 minutes incubation at 25° C. to allow antibody-antigen binding to reach equilibrium. The equilibrated solutions were injected over the receptor surfaces at 10 μL/min for 5 minutes at 25° C. To evaluate the ability of the selected anti-hAng-2 antibodies to block Ang-1-WT binding to hTie-2, a similar procedure was followed except the antibodies were tested at three concentrations (50, 100 or 1000 nM) and incubated with 10 nM of hAng-1-WT. Changes in resonance units (RU) due to the binding of the Ang-2-WT or hAng-1-WT to hTie-2-mFc were determined. An irrelevant antibody with no binding to either angiopoietin was included in these experiments to establish the 0% blocking baseline, and a human Tie-2-mFc construct was used as a positive control for blocking. Results are summarized in Tables 21 (hAng-1 applied to a hTie-2 surface) and 22 (hAng-2 applied to a hTie-2 surface).

[3] = 1 μM antibody premixed with 10 nM hAng-1-WT, 25° C.

Substance: H1H685P: human anti-Ang-2 antibody, HCVR/LCVR SEQ ID NOs 18/20; also referred to as mAb1 [Antibody H1H685P]
- Relative Tumor Perfusion ([1]; mean ± SD): 6.32 ± 2.81
- % Decrease in Tumor Perfusion ([1]; vs Fc control): 22%
- Blocking of binding of human Ang-1 to human Tie-2 (in words) [2]: do not significantly block
- Percent of Neg. Ctrl Binding (hAng-1 WT) ([2]; 50 nM antibody or control): 95%
- Specific Bound RU (hAng-1 WT) ([2]; 50 nM antibody or control): 299 RU
- Percent of Neg. Ctrl Binding (hAng-1 WT) ([2]; 100 nM antibody or control): 95%
- Specific Bound RU (hAng-1 WT) ([2]; 100 nM antibody or control): 291 RU
- Percent of Negative Control Binding (hAng-1-WT to Tie-2) [2, 3]: 81%
- RU (average), hAng-1-WT bound to hTie-2-mFc [2, 3]: 137 RU
- Percent of Neg. Ctrl Binding (hAng-1 WT) ([2]; 1000 nM antibody or control): 105%
- Specific Bound RU (hAng-1 WT) ([2]; 1000 nM antibody or control): 289 RU
